Tested on: PSMα3
Assay: EMSA

Row | Substance | Kd [µM]
1 | Poly (AU) RNA, oligoA/oligoU duplex | 61.8
2 | Poly (A) RNA, oligoA | 94.5

Reference: publication doi:10.1101/2025.06.17.660072
